Measured values taken from patent US10736941B2, “Cell membrane-permeating peptide” (NATIONAL UNIVERSITY CORPORATION KUMAMOTO UNIVERSITY, priority 2015, dated 2020).
Where no end group is shown, it is not given here.

Legend:
[1] = test system: Caco-2 cells; test: Cell toxicity to Caco-2 cells (Cell Counting kit 8); type: cell-based, human; details: Caco-2 cells treated for 24 hours, 10 μM
Protocol: For cell toxicity, 100 μL of 0-10 μM DNP peptide was added to Caco-2 cells cultured in a 96-well plate, and the cell survival rates after 1, 6 and 24 hours were measured using Cell Counting kit 8 (DOJINDO Laboratories).
(§1) Caco-2 cells were treated for 24 hours using the cyclic peptide DNP having highest permeability at a concentration of 10 μM, but weakening of cell toxicity and tight junction was not observed.

[2] = test system: Caco-2 cells; test: Influence on tight junction of Caco-2 cells (TEER, Millicell ERS-2); type: cell-based, human; details: Caco-2 cells treated for 24 hours, 10 μM
Protocol: For the influence on tight junction, Caco-2 cells were cultured in Transwell, then, 2 mL of 0-10 μM peptide DNP was added at the apical (AP) side, and 1, 2, 3, 6, 12 and 24 hours after addition, the electric resistance value (TEER) was measured using Millicell ERS-2.
as §1

[3] = test system: Caco-2 cells; test: Competitive inhibition of DNP-presenting phage permeation through Caco-2 cells by synthetic unlabeled DNP peptide; type: cell-based, human; details: unlabeled DNP 10 μM
Protocol: The experiment of permeation using Caco-2 cells was conducted according to a report of Ohura et al. (J. Pharm. Sci. Vol 100, No. 9, 2011). Each phage stock was prepared by diluting with an HBSS buffer so as to give a concentration of 5×10^11 pfu/mL. Caco-2 cells placed in Transwell (manufactured by Coring) were cultured, and formation of sufficient tight junction was confirmed, then, Transwell was transferred to a new 6-well plate. To the apical (AP) side of the cell, 2 mL of the phage preparation liquid was added and incubated at 37° C. (this time point t=0 min). When reached each time point, Transwell was transferred to a new 6-well plate. The time point was 1, 3, 5, 10 and 30 min. The sample at the basal (BA) side at each time point was kept on ice. When reached 30 min, Transwell was transferred to a new 6-well plate, and the HBSS buffer at the AP side was aspirated, then, the cells were recovered into a centrifugal tube. The titre at the BA side and the titre in the supernatant at each time point were measured by qPCR. […]
The DNP-presenting phage permeating Caco-2 cells was measured in the presence or in the absence of the unlabeled DNP, in the same manner as in Example 1. […]

[4] = test system: mouse small intestine closed loop; test: Promotion of insulin absorption by co-administration of cyclic peptide, mouse small intestine closed loop, blood glucose level; type: in vivo; details: DNPGNET 5 mM co-administered with insulin 10 IU/kg into mouse small intestine loop, versus insulin alone, over 60 minutes
Protocol: The influence on insulin absorption by co-administration of the cyclic peptide of the present invention was studied by measuring the blood glucose level.
We asked GenScript Japan Inc. to synthesize a cyclic peptide shown in FIG. 4B containing a sequence of DNPGNET (SEQ TD No: 5).
A peptide was prepared by using 100 μL of a hot HBSS solution so that the concentration of insulin was 10 IU/kg and the concentration of DNPGNET was 5 mM and incubated at 37° C. for 1 hour, and the resultant was used in the co-administration group. For the insulin single administration group, a sample was prepared by using 100 μL of a hot HBSS solution so that the concentration of insulin was 10 IU/kg and incubated at 37° C. for 1 hour, and the resultant peptide was used. In the same manner as in Example 6, a mouse small intestine closed loop was produced, then, the DNPGNET+insulin solution or the insulin solution prepared previously was administered into the loop. The time of administration was 0 min, and the blood glucose level was measured over a time of 60 minutes by using ACCU-CHEK (registered trademark) Aviva Nano.

DNPGNET (also: cyclic peptide, mode of cyclisation not given here)
cell toxicity [1]: not observed
weakening of tight junction (TEER) [2]: not observed
competitive inhibition of DNP-presenting phage permeating Caco-2 cells [3]: competitive inhibition occurs
insulin absorption (blood glucose level) [4]: absorption of insulin was promoted
